# Publication PMC3121528 (The Journal of Biological Chemistry, 2011)
# B1: N-terminally HA-tagged IκB kinase β (IKKβ), O14920 1-756 (enzyme)
# chain: MSWSPSLTTQTCGAWEMKERLGTGGFGNVIRWHNQETGEQIAIKQCRQELSPRNRERWCLEIQIMRRLTHPNVVAARDVPEGMQNLAPNDLPLLAMEYCQGGDLRKYLNQFENCCGLREGAILTLLSDIASALRYLHENRIIHRDLKPENIVLQQGEQRLIHKIIDLGYAKELDQGSLCTSFVGTLQYLAPELLEQQKYTVTVDYWSFGTLAFECITGFRPFLPNWQPVQWHSKVRQKSEVDIVVSEDLNGTVKFSSSLPYPNNLNSVLAERLEKWLQLMLMWHPRQRGTDPTYGPNGCFKALDDILNLKLVHILNMVTGTIHTYPVTEDESLQSLKARIQQDTGIPEEDQELLQEAGLALIPDKPATQCISDGKLNEGHTLDMDLVFLFDNSKITYETQISPRPQPESVSCILQEPKRNLAFFQLRKVWGQVWHSIQTLKEDCNRLQQGQRAAMMNLLRNNSCLSKMKNSMASMSQQLKAKLDFFKTSIQIDLEKYSEQTEFGITSDKLLLAWREMEQAVELCGRENEVKLLVERMMALQTDIVDLQRSPMGRKQGGTLDDLEEQARELYRRLREKPRDQRTEGDSQEMVRLLLQAIQSFEKKVRVIYTQLSKTVVCKQKALELLPKVEEVVSLMNEDEKTVVRLQEKRQKELWNLLKIACSKVRGPVSGSPDSMNASRLSQPGQLMSQPSTASNSLPEPAKKSEELVAEAHNLCTLLENAIQDTVREQDQSFTALDWSWLQTEEEEHSCLEQAS
# B2: N-terminally His6-tagged wild-type B14 (vaccinia virus strain Western Reserve) (natural protein)
# chain: MTANFSTHVFSPQHCGCDRLTSIDDVRQCLTEYIYWSSYAYRNRQCAGQLYSTLLSFRDDAELVFIDIRELVKNMPWDDVKDCAEIIRCYIPDEQKTIREISAIIGLCAYAATYWGGEDHPTSNSLNALFVMLEMLNYVDYNIIFRRMN
# Assays:
# [1] = biological target: FLAG-tagged B14 F130K (vaccinia virus strain Western Reserve) (UniProt P24772); experiment: co-IP
# [2] = biological target: FLAG-tagged B14 Y35E (vaccinia virus strain Western Reserve), P24772; experiment: co-IP; details: remark: other sources report otherwise
# SEC-MALS = biological target: the molecule itself; experiment: SEC-MALS
molecule,measurement,setting,value
N-terminally HA-tagged IκB kinase β (IKKβ) (from UniProt O14920 1-756) (enzyme),co-precipitated IKKβ relative to wild-type B14 (% of wild-type B14),[1],1
B1,co-precipitated IKKβ relative to wild-type B14 (fold of wild-type B14),[2],0.5
B2,Kd,SEC-MALS,20.6 ± 0.9 µM
same,stoichiometry N,SEC-MALS,2
